Values quoted from earlier work in article PMC3179904.

Target: CheA (Escherichia coli) (UniProt P07363)
Sequence of UniProt P07363 (P07363 whole entry): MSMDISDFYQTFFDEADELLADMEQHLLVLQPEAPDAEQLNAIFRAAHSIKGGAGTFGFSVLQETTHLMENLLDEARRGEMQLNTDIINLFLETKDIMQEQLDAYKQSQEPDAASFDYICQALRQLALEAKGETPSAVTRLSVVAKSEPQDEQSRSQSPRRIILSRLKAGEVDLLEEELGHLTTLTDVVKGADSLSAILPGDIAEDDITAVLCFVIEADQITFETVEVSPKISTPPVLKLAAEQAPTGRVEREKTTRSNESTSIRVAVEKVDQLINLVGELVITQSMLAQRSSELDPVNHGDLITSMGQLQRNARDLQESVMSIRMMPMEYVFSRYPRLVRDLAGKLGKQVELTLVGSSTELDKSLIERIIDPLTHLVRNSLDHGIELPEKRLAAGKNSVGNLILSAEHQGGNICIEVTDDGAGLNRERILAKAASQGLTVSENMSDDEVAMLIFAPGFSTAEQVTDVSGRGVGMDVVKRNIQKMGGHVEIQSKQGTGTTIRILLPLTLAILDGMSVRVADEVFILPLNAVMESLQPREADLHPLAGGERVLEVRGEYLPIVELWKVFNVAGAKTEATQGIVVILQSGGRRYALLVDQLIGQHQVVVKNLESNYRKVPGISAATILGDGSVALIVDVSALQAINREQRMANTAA

Kd: 17 µM
Substance: CheW (from UniProt P0A964)
